Measured values: patent US5739291, “Glutamate receptor antibodies” (The Salk Institute For Biological Studies, dated 1998)

Target: glutamate receptor subunit GluR2 (rat)
Experiment: cell-based or functional assay

Chain of glutamate receptor subunit GluR2 (rat) (chain, as listed by the source limits assumed): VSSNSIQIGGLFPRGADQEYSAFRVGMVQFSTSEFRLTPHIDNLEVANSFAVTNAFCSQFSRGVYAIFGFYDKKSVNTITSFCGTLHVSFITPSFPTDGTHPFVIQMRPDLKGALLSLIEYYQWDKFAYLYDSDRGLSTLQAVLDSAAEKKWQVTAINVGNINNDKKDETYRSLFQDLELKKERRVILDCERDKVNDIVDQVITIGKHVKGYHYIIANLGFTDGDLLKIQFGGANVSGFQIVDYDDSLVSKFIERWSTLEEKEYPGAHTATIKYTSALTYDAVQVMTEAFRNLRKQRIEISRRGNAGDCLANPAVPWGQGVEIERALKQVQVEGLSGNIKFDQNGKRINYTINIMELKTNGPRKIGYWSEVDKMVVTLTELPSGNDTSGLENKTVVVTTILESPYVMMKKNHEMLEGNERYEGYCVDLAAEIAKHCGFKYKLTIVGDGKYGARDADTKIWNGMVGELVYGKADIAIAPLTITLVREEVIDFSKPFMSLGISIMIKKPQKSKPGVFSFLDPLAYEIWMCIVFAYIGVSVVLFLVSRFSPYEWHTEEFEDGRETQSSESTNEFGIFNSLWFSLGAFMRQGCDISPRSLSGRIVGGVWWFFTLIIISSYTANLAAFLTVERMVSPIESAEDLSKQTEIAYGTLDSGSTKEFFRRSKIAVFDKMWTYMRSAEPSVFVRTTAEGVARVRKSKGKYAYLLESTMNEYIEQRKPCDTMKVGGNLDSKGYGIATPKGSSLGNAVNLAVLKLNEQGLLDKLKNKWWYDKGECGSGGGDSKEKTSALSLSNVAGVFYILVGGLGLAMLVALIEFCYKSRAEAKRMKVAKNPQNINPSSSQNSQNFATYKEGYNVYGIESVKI

KA-evoked currents in Xenopus oocytes on co-expression, against the summed responses of singly injected oocytes: ~4 fold
B1: glutamate receptor subunit GluR1 (receptor)
chain: ANFPNNIQIGGLFPNQQSQEHAAFRFALSQLTEPPKLLPQIDIVNISDTFEMTYRFCSQFSKGVYAIFGFYERRTVNMLTSFCGALHVCFITPSFPVDTSNQFVLQLRPELQEALISIIDHYKWQTFVYIYDADRGLSVLQRVLDTAAEKNWQVTAVNILTTTEEGYRMLFQDLEKKKERLVVVDCESERLNAILGQIVKLEKNGIGYHYILANLGFMDIDLNKFKESGRNVTGFQLVNYTDTIPARIMQQWRTSDSRDHTRVDWKRPKYTSALTYDGVKVMAEAFQSLRRQRIDISRRGNAGDCLANPAVPWGQGIDIQRALQQVRFEGLTGNVQFNEKGRRTNYTLHVIEMKHDGIRKIGYWNEDDKFVPAATDAQAGGDNSSVQNRTYIVTTILEDPYVMLKKNANQFEGNDRYEGYCVELAAEIAKHVGYSYRLEIVSDGKYGARDPDTKAWNGMVGELVYGRADVAVAPLTITLVREEVIDFSKPFMSLGISIMIKKPQKSKPGVFSFLDPLAYEIWMCIVFAYIGVSVVLFLVSRFSPYEWHSEEFEEGRDQTTSDQSNEFGIFNSLWFSLGAFMQQGCDISPRSLSGRIVGGVWWFFTLIIISSYTANLAAFLTVERMVSPIESAEDLAKQTEIAYGTLEAGSTKEFFRRSKIAVFEKMWTYMKSAEPSVFVRTTEEGMIRVRKSKGKYAYLLESTMNEYIEQRKPCDTMKVGGNLDSKGYGIATPKGSALRNPVNLAVLKLNEQGLLDKLKNKWWYDKGECGTGGGDSKDKTSALSLSNVAGVFYILIGGLGLAMLVALIEFCYKSRSESKRMKGFCLIPQQSINEAIRTSTLPRNSGAGASGGGGSGENGRVVSQDFPKSMQSIPCMSHSSGMPLGATGL
